Assay results: the supplement of paper PMC10126150
± gives the standard deviation of the averaged measurements.

What follows are sequences tested on ATP (assay: switch fluorescence ratio, 500 uM ATP over buffer (Cy3 cluster intensity, sum of 5 cycles each) (fold (ratio)); higher = stronger signal-on switching upon ATP binding; sequences stand for … in TCGTCGGCAGCGTCAGATGTGTATAAGAGACAGTTTTTTTTTTTTTTTTTTTTTTTTT…TC). Details: aptamer strand: ATP DNA aptamer (quencher-CACCTGGGGGAGTATTGCGGAGGAAGG + anchor), 100 nM annealed; ATP concentration: 500 uM.
In short: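 Between each of five buffer/ATP cycles, the flow-cell was stripped with NaOH and re-annealed. Each cycle imaged Cy3-labelled switching-strand clusters, annealed to 100 nM quencher-labelled ATP aptamer on a modified Illumina MiSeq flow-cell, first in selection buffer and then after 15 min with 500 uM ATP at 22 °C. The fluorescence ratio is summed target-cycle over summed buffer-cycle Cy3 intensity per cluster, averaged per switch-domain sequence, with clusters outside 100-1000 RFU excluded.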
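Also: ATP exposure 15 min at 22 °C before imaging.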

| Sequence | switch fluorescence ratio |
| --- | --- |
| GGGTAGGGAA | 0.998 ± 0.016 |
| GGGTAGGGTG | 1.04 ± 0.055 |
| GGGTAGGTGC | 1.13 ± 0.044 |
| GGGTAGTCAG | 0.995 ± 0.017 |
| GGGTAGTGGT | 1.01 ± 0.038 |
| GGGTATACAG | 1.01 ± 0.053 |
| GGGTATACCG | 1.018 ± 0.0017 |
| GGGTATAGTA | 0.973 ± 0.044 |
| GGGTATATGG | 1.01 ± 0.022 |
| GGGTATATTG | 0.983 ± 0.011 |
| GGGTATCTTG | 1 ± 0.003 |
| GGGTATGATG | 1.01 ± 0.044 |
| GGGTATTGGG | 0.99 ± 0.021 |
| GGGTCAACGT | 0.987 ± 0.015 |
| GGGTCAAGTC | 0.968 ± 0.04 |
| GGGTCAGAGA | 0.987 ± 0.019 |
| GGGTCAGGTT | 1.01 ± 0.029 |
| GGGTCATGTA | 1.008 ± 0.0027 |
| GGGTCATTGT | 1.03 ± 0.032 |
| GGGTCCCGGG | 1.0586 ± 0.00036 |
| GGGTCCGGCG | 0.995 ± 0.034 |
| GGGTCGGCTA | 1.02 ± 0.035 |
| GGGTCGGGAA | 1.006 ± 0.0032 |
| GGGTCGGGGA | 0.97587 ± 0.00076 |
| GGGTCGGGGT | 0.99 ± 0.029 |
| GGGTCTACCG | 0.991 ± 0.015 |

| Sequence | switch fluorescence ratio |
| --- | --- |
| GGGTCTGCGC | 1.03 ± 0.024 |
| GGGTCTTCGT | 0.968 ± 0.039 |
| GGGTGAAGGG | 0.974 ± 0.021 |
| GGGTGACGGG | 1.01 ± 0.074 |
| GGGTGATTCC | 1.03 ± 0.014 |
| GGGTGATTGC | 0.964 ± 0.011 |
| GGGTGCCCAT | 1.03 ± 0.021 |
| GGGTGCGATT | 1.03 ± 0.025 |
| GGGTGCTTGG | 1.0239 ± 0.00098 |
| GGGTGGCGGT | 1.01 ± 0.021 |
| GGGTGGGATA | 1.02 ± 0.044 |
| GGGTGGGCTT | 0.997 ± 0.032 |
| GGGTGGGGAG | 0.984 ± 0.045 |
| GGGTGGGGCT | 1.01 ± 0.031 |
| GGGTGGGGG | 1.01 ± 0.033 |
| GGGTGGGGGC | 1.02 ± 0.037 |
| GGGTGGGGTA | 0.971 ± 0.036 |
| GGGTGGGTAG | 0.955 ± 0.037 |
| GGGTGGGTCA | 1.01 ± 0.048 |
| GGGTGGTCAG | 1.01 ± 0.023 |
| GGGTGGTGGA | 1.01 ± 0.019 |
| GGGTGTAAAA | 1 ± 0.022 |
| GGGTGTAAGG | 0.998 ± 0.022 |
| GGGTGTAGTG | 0.988 ± 0.024 |
| GGGTGTATCG | 0.9943 ± 0.0036 |
| GGGTGTCCTT | 0.998 ± 0.042 |

| Sequence | switch fluorescence ratio |
| --- | --- |
| GGGTGTGGGA | 0.997 ± 0.017 |
| GGGTGTGTGT | 1.02 ± 0.017 |
| GGGTGTTTAG | 1.01 ± 0.027 |
| GGGTGTTTGC | 1.02 ± 0.035 |
| GGGTGTTTTC | 0.998 ± 0.034 |
| GGGTGTTTTT | 0.98 ± 0.0073 |
| GGGTTAACGG | 1 ± 0.018 |
| GGGTTAAGCA | 0.9961 ± 0.0055 |
| GGGTTAAGGC | 1.01 ± 0.062 |
| GGGTTAATCG | 1 ± 0.022 |
| GGGTTAATTG | 0.983 ± 0.017 |
| GGGTTAGAAA | 1 ± 0.043 |
| GGGTTAGGGC | 0.988 ± 0.023 |
| GGGTTAGGTG | 1.14 ± 0.065 |
| GGGTTAGGTT | 1.01 ± 0.064 |
| GGGTTATCAG | 0.981 ± 0.035 |
| GGGTTATGCG | 1.04 ± 0.027 |
| GGGTTCCTGG | 0.995 ± 0.028 |
| GGGTTCGGAA | 0.9972 ± 0.0093 |
| GGGTTCGGGA | 0.991 ± 0.027 |
| GGGTTGAAGT | 0.985 ± 0.008 |
| GGGTTGACGG | 0.986 ± 0.057 |
| GGGTTGGACT | 0.999 ± 0.012 |
| GGGTTGGCGT | 0.956 ± 0.012 |
| GGGTTGGGCC | 0.989 ± 0.014 |
| GGGTTGGTAG | 0.984 ± 0.026 |

| Sequence | switch fluorescence ratio |
| --- | --- |
| GGGTTGTAGT | 1.02 ± 0.032 |
| GGGTTGTGGA | 1 ± 0.029 |
| GGGTTGTGGG | 1 ± 0.043 |
| GGGTTGTTGT | 0.982 ± 0.014 |
| GGGTTTAAAA | 0.985 ± 0.044 |
| GGGTTTAATT | 0.999 ± 0.011 |
| GGGTTTAGGT | 0.981 ± 0.011 |
| GGGTTTGAAG | 1 ± 0.025 |
| GGGTTTGATC | 0.9749 ± 0.008 |
| GGGTTTTCAT | 0.993 ± 0.012 |
| GGGTTTTGTT | 1.02 ± 0.029 |
| GGGTTTTTCC | 1.1 ± 0.18 |
| GGTAAAAGTT | 1.01 ± 0.022 |
| GGTAAACAGG | 1.04 ± 0.031 |
| GGTAAATAAG | 0.961 ± 0.018 |
| GGTAAATGGG | 0.957 ± 0.011 |
| GGTAACCGCT | 1.01 ± 0.03 |
| GGTAACCTTT | 1.43 ± 0.58 |
| GGTAACGACA | 1.02 ± 0.019 |
| GGTAAGGGTT | 0.9866 ± 0.0081 |
| GGTAAGTTTG | 1.03 ± 0.028 |
| GGTAATATTT | 0.998 ± 0.031 |
| GGTAATGGTG | 1.0095 ± 0.00021 |
| GGTAATTGCG | 0.99 ± 0.022 |
| GGTACACGGG | 1.01 ± 0.054 |
| GGTACAGTTA | 0.985 ± 0.016 |

| Sequence | switch fluorescence ratio |
| --- | --- |
| GGTACGGGGG | 1 ± 0.013 |
| GGTACGGTAA | 1.11 ± 0.038 |
| GGTACGTATG | 0.986 ± 0.036 |
| GGTACTA | 1.02 ± 0.0021 |
| GGTACTGGAG | 1.04 ± 0.034 |
| GGTAGAAGCG | 1.02 ± 0.026 |
| GGTAGAAGGG | 0.989 ± 0.042 |
| GGTAGAATTA | 0.979 ± 0.032 |
| GGTAGCTTGG | 1.13 ± 0.17 |
| GGTAGGAGAT | 1.05 ± 0.036 |
| GGTAGGGATG | 0.962 ± 0.024 |
| GGTAGGGGGG | 1.01 ± 0.035 |
| GGTAGGGGGT | 1 ± 0.03 |
| GGTAGGTGGT | 0.98 ± 0.022 |
| GGTAGTATGG | 1 ± 0.03 |
| GGTAGTCCAC | 1.01 ± 0.027 |
| GGTAGTCCGG | 1.02 ± 0.054 |
| GGTAGTCCGT | 1.03 ± 0.016 |
| GGTAGTGGGT | 1 ± 0.013 |
| GGTAGTGTTT | 0.998 ± 0.035 |
| GGTAGTTAAA | 0.999 ± 0.024 |
| GGTAGTTTCA | 0.9966 ± 0.00047 |
| GGTATAAGGA | 0.996 ± 0.016 |
| GGTATATGGG | 0.994 ± 0.03 |
| GGTATCACGG | 0.9912 ± 0.0045 |
| GGTATCCGTG | 1.019 ± 0.0085 |

| Sequence | switch fluorescence ratio |
| --- | --- |
| GGTATGAAGG | 0.9664 ± 0.0095 |
| GGTATGACTT | 1.03 ± 0.07 |
| GGTATGATGG | 0.991 ± 0.01 |
| GGTATGCGGT | 0.974 ± 0.027 |
| GGTATGGATC | 0.9869 ± 0.0084 |
| GGTATGGGAC | 1 ± 0.022 |
| GGTATGGGTC | 0.947 ± 0.034 |
| GGTATGTAAG | 0.995 ± 0.02 |
| GGTATGTACG | 1.03 ± 0.054 |
| GGTATGTCGA | 0.954 ± 0.075 |
| GGTATTAAGG | 1.02 ± 0.013 |
| GGTATTAGAT | 1.01 ± 0.049 |
| GGTATTAGGG | 1.002 ± 0.0014 |
| GGTATTCAGG | 1.03 ± 0.018 |
| GGTATTCATG | 1.01 ± 0.011 |
| GGTATTCATT | 0.995 ± 0.036 |
| GGTATTGGGC | 0.9875 ± 0.0056 |
| GGTATTTATT | 1.01 ± 0.019 |
| GGTATTTGTA | 0.991 ± 0.031 |
| GGTATTTGTT | 1.01 ± 0.032 |
| GGTATTTTGC | 0.979 ± 0.048 |
| GGTATTTTTT | 0.997 ± 0.025 |
| GGTCAATGTG | 0.987 ± 0.033 |
